Read-outs that look alike come from different tables or passages of the source.

For assay [1], the target named is RIAM (Homo sapiens) (UniProt Q7Z5R6). Particulars: cited from earlier work.
The target of assay [2] is Talin R1-R2-R3 (UniProt Q9Y490). Particulars: cited from earlier work.
Assay [3] deals with RIAM (Homo sapiens) (UniProt Q7Z5R6). Particulars: cited from earlier work. This is another data set of the same source.
The target of assay [4] is T1, talin R11 (F2–F3–R11–R13) (human).
T1 chain: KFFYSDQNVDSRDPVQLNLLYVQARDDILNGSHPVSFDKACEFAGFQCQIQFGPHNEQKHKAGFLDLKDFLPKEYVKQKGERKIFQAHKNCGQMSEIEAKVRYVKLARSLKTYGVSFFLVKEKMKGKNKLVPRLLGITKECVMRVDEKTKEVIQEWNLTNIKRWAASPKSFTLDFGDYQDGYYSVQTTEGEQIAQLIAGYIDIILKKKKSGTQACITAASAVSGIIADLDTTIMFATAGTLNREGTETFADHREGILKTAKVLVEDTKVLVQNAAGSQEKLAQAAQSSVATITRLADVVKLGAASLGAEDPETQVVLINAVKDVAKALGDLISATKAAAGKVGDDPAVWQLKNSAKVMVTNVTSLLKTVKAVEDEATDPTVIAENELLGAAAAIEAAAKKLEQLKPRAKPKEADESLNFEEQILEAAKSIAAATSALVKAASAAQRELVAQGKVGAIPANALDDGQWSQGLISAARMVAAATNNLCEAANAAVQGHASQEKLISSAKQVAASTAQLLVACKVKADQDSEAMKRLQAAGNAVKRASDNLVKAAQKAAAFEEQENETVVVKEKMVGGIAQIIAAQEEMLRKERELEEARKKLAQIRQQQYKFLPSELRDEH

The target in assay [5] is T2, talin R1–R2–R3 (F2–F3–R1–R2–R3–R13) (human).
T2 chain: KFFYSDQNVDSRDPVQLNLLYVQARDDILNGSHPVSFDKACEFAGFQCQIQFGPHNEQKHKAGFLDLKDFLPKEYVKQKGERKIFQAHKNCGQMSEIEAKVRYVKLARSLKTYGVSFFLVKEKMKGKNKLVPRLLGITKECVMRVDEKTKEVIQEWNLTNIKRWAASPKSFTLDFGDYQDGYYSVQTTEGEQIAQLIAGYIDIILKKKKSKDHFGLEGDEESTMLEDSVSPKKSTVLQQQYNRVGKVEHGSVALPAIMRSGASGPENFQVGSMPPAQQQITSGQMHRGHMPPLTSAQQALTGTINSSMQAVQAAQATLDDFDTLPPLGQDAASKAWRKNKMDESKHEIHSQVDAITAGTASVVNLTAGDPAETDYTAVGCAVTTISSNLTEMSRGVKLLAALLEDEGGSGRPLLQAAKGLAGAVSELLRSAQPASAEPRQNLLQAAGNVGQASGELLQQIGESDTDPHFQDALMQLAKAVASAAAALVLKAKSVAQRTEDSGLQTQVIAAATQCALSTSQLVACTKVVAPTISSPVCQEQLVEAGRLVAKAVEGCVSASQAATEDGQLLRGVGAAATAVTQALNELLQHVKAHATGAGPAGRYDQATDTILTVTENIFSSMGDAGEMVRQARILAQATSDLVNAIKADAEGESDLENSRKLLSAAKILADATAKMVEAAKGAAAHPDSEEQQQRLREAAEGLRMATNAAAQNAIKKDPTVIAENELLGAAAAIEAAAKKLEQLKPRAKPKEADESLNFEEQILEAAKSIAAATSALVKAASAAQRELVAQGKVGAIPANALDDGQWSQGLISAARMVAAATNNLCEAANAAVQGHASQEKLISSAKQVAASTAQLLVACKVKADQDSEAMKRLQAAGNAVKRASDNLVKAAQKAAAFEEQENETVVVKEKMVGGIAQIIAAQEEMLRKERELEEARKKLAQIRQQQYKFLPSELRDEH

Assay [6] concerns the target T3, talin R7–R8 (F2–F3–R7–R8–R13) (human).
T3 chain: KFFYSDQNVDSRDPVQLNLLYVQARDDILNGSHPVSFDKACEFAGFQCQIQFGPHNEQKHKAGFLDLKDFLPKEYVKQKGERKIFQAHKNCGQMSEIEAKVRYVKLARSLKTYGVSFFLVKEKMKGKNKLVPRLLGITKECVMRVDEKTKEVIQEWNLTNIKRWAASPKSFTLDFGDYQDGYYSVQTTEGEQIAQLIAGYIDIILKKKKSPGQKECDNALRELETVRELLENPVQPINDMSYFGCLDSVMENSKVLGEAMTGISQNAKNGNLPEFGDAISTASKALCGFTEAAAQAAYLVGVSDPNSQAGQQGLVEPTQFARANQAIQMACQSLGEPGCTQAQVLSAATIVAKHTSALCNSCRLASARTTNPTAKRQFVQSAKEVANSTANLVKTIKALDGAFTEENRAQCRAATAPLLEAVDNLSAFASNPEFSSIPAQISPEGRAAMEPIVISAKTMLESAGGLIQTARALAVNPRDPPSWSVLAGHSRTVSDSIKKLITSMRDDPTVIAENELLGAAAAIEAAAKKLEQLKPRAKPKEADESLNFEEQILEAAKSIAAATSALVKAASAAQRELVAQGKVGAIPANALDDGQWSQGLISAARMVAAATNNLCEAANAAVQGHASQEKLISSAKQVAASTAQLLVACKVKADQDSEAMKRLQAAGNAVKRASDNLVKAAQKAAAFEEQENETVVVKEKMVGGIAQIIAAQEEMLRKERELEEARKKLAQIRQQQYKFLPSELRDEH

In assay [7] the target is T2, talin R1–R2–R3 (F2–F3–R1–R2–R3–R13). Kind of assay: fluorescence microscopy of protein-coated micropatterns; talin construct (1 µM during coating) on disk micropatterns, 100 nM mCherry-RIAM 1-306 in solution, with actomyosin (2.4 µM actin, 50 nM myosin II) applying force to talin.
For assay [8] the target is unchanged. As to the kind of experiment: fluorescence microscopy of protein-coated micropatterns; talin construct (1 µM during coating) on 5 µm disk micropatterns, 0–1 µM mCherry-RIAM 1-306 in solution, no actomyosin; Kd estimated as the RIAM concentration at half saturation.
Assay [9] addresses T4, talin F2–F3–R1–R2–R3 (talin 196–911) (human, UniProt Q9Y490 196-911).
T4 construct: human talin-1, F2–F3–R1–R2–R3, residues 196–911; The methods tell of GST cleavage only for mCherry-RIAM 1-306 and EGFP-Vh, so GST was probably kept on this construct; also called the same construct fused to R1–R2–R3; source: E. coli BL21 DE3, purified (glutathione-Sepharose, Ni-NTA)
Described as above. The note with it: both partners purified.

Sequence of RIAM (Homo sapiens) (Q7Z5R6 whole entry): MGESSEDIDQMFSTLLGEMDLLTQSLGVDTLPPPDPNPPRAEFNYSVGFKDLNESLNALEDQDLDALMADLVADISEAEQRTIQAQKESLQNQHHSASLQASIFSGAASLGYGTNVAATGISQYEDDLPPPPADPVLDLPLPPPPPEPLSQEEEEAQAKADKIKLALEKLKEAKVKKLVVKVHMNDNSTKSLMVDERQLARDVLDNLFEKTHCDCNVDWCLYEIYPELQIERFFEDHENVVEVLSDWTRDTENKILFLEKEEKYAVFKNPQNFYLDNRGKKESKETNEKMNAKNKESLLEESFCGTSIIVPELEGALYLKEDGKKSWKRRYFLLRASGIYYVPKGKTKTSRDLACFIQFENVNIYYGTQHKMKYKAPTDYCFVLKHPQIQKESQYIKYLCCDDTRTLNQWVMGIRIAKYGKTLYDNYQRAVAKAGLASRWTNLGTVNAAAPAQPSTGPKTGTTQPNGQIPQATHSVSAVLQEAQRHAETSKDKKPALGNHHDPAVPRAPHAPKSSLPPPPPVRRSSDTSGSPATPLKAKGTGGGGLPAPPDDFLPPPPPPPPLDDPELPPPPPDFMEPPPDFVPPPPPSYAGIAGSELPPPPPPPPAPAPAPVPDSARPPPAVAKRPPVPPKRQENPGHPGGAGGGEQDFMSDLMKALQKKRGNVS

In the case of Talin F3 (from UniProt P26039), the Kd – broadly, the equilibrium constant for the complex coming apart – in assay [1] was 32000 nM.
Regarding Vinculin Vh (from UniProt P18206), the Kd was 140 nM in assay [2] and 5000 nM in assay [3].

B1: mCherry-RIAM 1-306 (domain or fragment, mouse, UniProt Q8R5A3 1-306, looked up)
chain: MGESNEDIDQMFSTLLGEMDLLTQSLGVDTLPPPDPNPPREEFNYTVGFKDLNESLNALEDQDLDALMADLVADISEAEQRTIQAQKESSQNQDRFALLRASDGQGTASGGYGASAAAIDVSHHEEALPPPPVEPMLDLLPPPPPPPPPELLSKEEEEAKAKADKIKLALEKLKEAKVKKLVVKVHMDDSSTKSLMVDERQLARDVLDNLFEKTHCDCNVDWCLYEIYPELQIERVFEDHENVVEVLSDWTRDTENKVLFLEKEERYAVFKNPQNFYLDNKGKKENKETNEKMNAKNKEYLLEESF
notes: Cloned in a homemade pGEX-6P2-mCherry plasmid; source: E. coli BL21 DE3, purified (glutathione-Sepharose, PreScission cleavage, Ni-NTA); not shown: GST, N-terminal, cleaved
With B1, the Kd in assay [4] is 36 nM; in [5] it was 134 nM; in assay [6], 38 nM; in [8] it was 36 nM. This molecule also displayed a percent of RIAM dissociated from talin at the end of the kinetics with actomyosin in [7] of 50%. The binding result in [9] was “binds”.

The values above are taken from paper PMC7305319, “Talin dissociates from RIAM and associates to vinculin sequentially in response to the actomyosin force” (Nature Communications, 2020).
